The text below walks through data of paper PMC5858577.

The target in this data set is VEGF (human recombinant VEGF165 in the cell experiments) (human, UniProt P15692-4 27-191). In words: fluorescence recovery by displacement from gold nanorod.

B1: gapmer aptamer probe (XNA)
DNA: CAATTGGGCCCGTCCGTATGGTGGGT
modifications: LNA monomers at both ends, DNA in the middle; exact positions only in Fig. 1b/Supplementary Table 1
For B1, the binding result was “binds”.
